Target: truncated cycD1 (16-267) (human, UniProt P24385 16-267)
Test: crystal structure

Chain of truncated cycD1 (16-267) (P24385 16-267): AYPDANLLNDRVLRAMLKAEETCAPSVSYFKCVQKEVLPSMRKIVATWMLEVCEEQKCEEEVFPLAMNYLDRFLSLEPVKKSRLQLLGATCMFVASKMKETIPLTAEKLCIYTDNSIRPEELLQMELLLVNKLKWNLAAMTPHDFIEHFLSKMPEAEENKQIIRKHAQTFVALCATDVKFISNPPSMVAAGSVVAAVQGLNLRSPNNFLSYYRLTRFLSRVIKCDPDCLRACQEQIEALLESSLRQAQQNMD

binding result: binds
B1: p27(3E) (p27^KID 25-93 with glutamate phosphomimetics at Y74, Y88 and Y89) (domain or fragment, human, UniProt P46527 25-93, looked up)
chain: KPSACRNLFGPVDHEELTRDLEKHCRDMEEASQRKWNFDFQNHKPLEGKEEWQEVEKGSLPEFEERPPR

Source: PMC7592119 (Science (New York, N.Y.), 2019)
